The values below come from the Human Domainome abundance scans (Beltran et al. 2025).

± gives the uncertainty stated by the source.

B1: Homeobox protein SIX6, residues 134 to 184; numbered along this chain, O95475 (parent)
chain: CFKERTRHLLREWYLQDPYPNPSKKRELAQATGLTPTQVGNWFKNRRQRDR

In the data set the parent is B1. The data set is described as follows: abundance fitness (aPCA) (normalised: wild type 0, dead -1); higher = more abundant; growth selection in yeast, the domain comes from the species named. The settings on record: Homo sapiens.
Regarding CFKERTRHLLREWELQDPYPNPSKKRELAQATGLTPTQVGNWFKNRRQRDR [Y14E], the abundance fitness was -0.788 ± 0.14.
CFKERTRHLLREWLLQDPYPNPSKKRELAQATGLTPTQVGNWFKNRRQRDR [Y14L]: the abundance fitness is -0.634 ± 0.062.
With CFKERTRHLLREWPLQDPYPNPSKKRELAQATGLTPTQVGNWFKNRRQRDR [Y14P] the figure was -0.983 ± 0.14; with CFKERTRHLLREWILQDPYPNPSKKRELAQATGLTPTQVGNWFKNRRQRDR [Y14I], -0.64 ± 0.095; with CFKERTRHLLREWVLQDPYPNPSKKRELAQATGLTPTQVGNWFKNRRQRDR [Y14V], -0.838 ± 0.095.
On to CFKERTRHLLREWQLQDPYPNPSKKRELAQATGLTPTQVGNWFKNRRQRDR [Y14Q], for which the abundance fitness is -0.918 ± 0.1.
Regarding CFKERTRHLLREWWLQDPYPNPSKKRELAQATGLTPTQVGNWFKNRRQRDR [Y14W], the abundance fitness is -0.847 ± 0.19.
The value for CFKERTRHLLREWSLQDPYPNPSKKRELAQATGLTPTQVGNWFKNRRQRDR [Y14S] was -0.888 ± 0.099.
Consider CFKERTRHLLREWKLQDPYPNPSKKRELAQATGLTPTQVGNWFKNRRQRDR [Y14K], for which the abundance fitness was -0.683 ± 0.19.
Consider CFKERTRHLLREWYLQDFYPNPSKKRELAQATGLTPTQVGNWFKNRRQRDR [P18F], for which the abundance fitness is -1.11 ± 0.28.
Consider CFKERTRHLLREWYLQDCYPNPSKKRELAQATGLTPTQVGNWFKNRRQRDR [P18C], for which the abundance fitness is -0.314 ± 0.12.
The value for CFKERTRHLLREWYLQDNYPNPSKKRELAQATGLTPTQVGNWFKNRRQRDR [P18N] was -0.696 ± 0.32; that for CFKERTRHLLREWYLQDAYPNPSKKRELAQATGLTPTQVGNWFKNRRQRDR [P18A] was -0.358 ± 0.083; that for CFKERTRHLLREWYLQDWYPNPSKKRELAQATGLTPTQVGNWFKNRRQRDR [P18W] was -0.491 ± 0.12.
As for CFKERTRHLLREWYLQDQYPNPSKKRELAQATGLTPTQVGNWFKNRRQRDR [P18Q], the abundance fitness was -0.234 ± 0.065.
Turning to CFKERTRHLLREWYLQDDYPNPSKKRELAQATGLTPTQVGNWFKNRRQRDR [P18D], the abundance fitness is -0.734 ± 0.11.
For the variant CFKERTRHLLREWYLQDTYPNPSKKRELAQATGLTPTQVGNWFKNRRQRDR [P18T], the abundance fitness was -0.915 ± 0.27.
In the case of CFKERTRHLLREWYLQDMYPNPSKKRELAQATGLTPTQVGNWFKNRRQRDR [P18M], the abundance fitness is -0.334 ± 0.067.
Take CFKERTRHLLREWYLQDLYPNPSKKRELAQATGLTPTQVGNWFKNRRQRDR [P18L]: the abundance fitness was -0.968 ± 0.12.
On to CFKERTRHLLREWYLQDVYPNPSKKRELAQATGLTPTQVGNWFKNRRQRDR [P18V], for which the abundance fitness was -0.822 ± 0.092.
For CFKERTRHLLREWYLQDIYPNPSKKRELAQATGLTPTQVGNWFKNRRQRDR [P18I], the abundance fitness is -0.776 ± 0.37.
With CFKERTRHLLREWYLQDKYPNPSKKRELAQATGLTPTQVGNWFKNRRQRDR [P18K] the figure was -0.42 ± 0.1; with CFKERTRHLLREWYLQDEYPNPSKKRELAQATGLTPTQVGNWFKNRRQRDR [P18E], -0.769 ± 0.2.
In the case of CFKERTRHLLREWYLQDHYPNPSKKRELAQATGLTPTQVGNWFKNRRQRDR [P18H], the abundance fitness is -0.442 ± 0.26.
With CFKERTRHLLREWYLQDGYPNPSKKRELAQATGLTPTQVGNWFKNRRQRDR [P18G] the figure was -0.824 ± 0.092; with CFKERTRHLLREWYLQDSYPNPSKKRELAQATGLTPTQVGNWFKNRRQRDR [P18S], -0.458 ± 0.07; with CFKERTRHLLREWYLQDPYCNPSKKRELAQATGLTPTQVGNWFKNRRQRDR [P20C], -0.7 ± 0.34.
CFKERTRHLLREWYLQDPYENPSKKRELAQATGLTPTQVGNWFKNRRQRDR [P20E]: the abundance fitness is -0.969 ± 0.25.
Consider CFKERTRHLLREWYLQDPYINPSKKRELAQATGLTPTQVGNWFKNRRQRDR [P20I], for which the abundance fitness is -0.466 ± 0.23.
In the case of CFKERTRHLLREWYLQDPYANPSKKRELAQATGLTPTQVGNWFKNRRQRDR [P20A], the abundance fitness was -0.816 ± 0.073.
Consider CFKERTRHLLREWYLQDPYHNPSKKRELAQATGLTPTQVGNWFKNRRQRDR [P20H], for which the abundance fitness was -0.693 ± 0.39.
With CFKERTRHLLREWYLQDPYGNPSKKRELAQATGLTPTQVGNWFKNRRQRDR [P20G], the abundance fitness is -0.887 ± 0.11.
On to CFKERTRHLLREWYLQDPYKNPSKKRELAQATGLTPTQVGNWFKNRRQRDR [P20K], for which the abundance fitness is -0.797 ± 0.31.
On to CFKERTRHLLREWYLQDPEPNPSKKRELAQATGLTPTQVGNWFKNRRQRDR [Y19E], for which the abundance fitness is -0.41 ± 0.06.
CFKERTRHLLREWYLQDPSPNPSKKRELAQATGLTPTQVGNWFKNRRQRDR [Y19S]: the abundance fitness is -0.508 ± 0.064.
The value for CFKERTRHLLREWYLQDPKPNPSKKRELAQATGLTPTQVGNWFKNRRQRDR [Y19K] was -0.239 ± 0.1; that for CFKERTRHLLREWYLQDPGPNPSKKRELAQATGLTPTQVGNWFKNRRQRDR [Y19G] was -0.867 ± 0.097.
For the variant CFKERTRHLLREWYLQDPQPNPSKKRELAQATGLTPTQVGNWFKNRRQRDR [Y19Q], the abundance fitness was -0.414 ± 0.051.
In the case of CFKERTRHLLREWYLQDPTPNPSKKRELAQATGLTPTQVGNWFKNRRQRDR [Y19T], the abundance fitness was -0.088 ± 0.082.
The value for CFKERTRHLLREWYLQDPPPNPSKKRELAQATGLTPTQVGNWFKNRRQRDR [Y19P] was -0.673 ± 0.17; that for CFKERTRHLLREWYLQDPLPNPSKKRELAQATGLTPTQVGNWFKNRRQRDR [Y19L] was -0.488 ± 0.088.
Consider CFKERTRHLLREWYLQDPCPNPSKKRELAQATGLTPTQVGNWFKNRRQRDR [Y19C], for which the abundance fitness was -0.469 ± 0.13.
CFKERTRHLLREWYLQDPAPNPSKKRELAQATGLTPTQVGNWFKNRRQRDR [Y19A]: the abundance fitness is -0.526 ± 0.091.
With CFKERTRHLLREWYLQDPVPNPSKKRELAQATGLTPTQVGNWFKNRRQRDR [Y19V] the figure was -0.625 ± 0.094; with CFKERTRHLLREWYLQDPHPNPSKKRELAQATGLTPTQVGNWFKNRRQRDR [Y19H], -0.364 ± 0.19; with CFKERTRHLLREWYLQDPNPNPSKKRELAQATGLTPTQVGNWFKNRRQRDR [Y19N], -0.132 ± 0.085.
The value for CFKERTRHLLREWYLQDPIPNPSKKRELAQATGLTPTQVGNWFKNRRQRDR [Y19I] was -0.366 ± 0.34; that for CFKERTRHLLREWYLQDPWPNPSKKRELAQATGLTPTQVGNWFKNRRQRDR [Y19W] was 0.052 ± 0.1; that for CFKERTRHLLREWYLQDPMPNPSKKRELAQATGLTPTQVGNWFKNRRQRDR [Y19M] was -0.312 ± 0.092.
As for CFKERTRHLLREWYLQDPRPNPSKKRELAQATGLTPTQVGNWFKNRRQRDR [Y19R], the abundance fitness was -0.177 ± 0.049.
CFKERTRHLLREWYLQDPFPNPSKKRELAQATGLTPTQVGNWFKNRRQRDR [Y19F]: the abundance fitness is -0.138 ± 0.068.
